Test results taken from the nanobody polyreactivity screen of Harvey et al. (2022).

assay: yeast display, Sf9 membrane polyspecificity reagent, FACS + sequencing; frameworks hold sequencing errors
Procedure, shortened: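 Polyreactivity labels are assigned by the sorting gate from which each nanobody was recovered. The gates were low and high (top ~1%), set on anti-HA fluorescence for expression and streptavidin fluorescence for reagent binding. Before sorting, galactose-induced (36–48 hours) yeast display cells were stained for 1 hour at 4 °C with 10% biotinylated, detergent-solubilized Sf9 membrane reagent.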

Row | Sequence | polyreactivity (PSR sort gate)
1 | QVQLVESGGGLVQAGGSLRLSCAASGLTFYHYDMGWYRQAPGKERELVAAINFSAGITYYADSVKGRFTISRDNAKNTVYLQMNSLKPEDTAVYYCAAEPEWWWRGYGYWGQGTQVTVSS | low polyreactivity
2 | QVQLVESGGGLVQAGGSLRLSCAASGLTFYLYAMGWYRQAPGKERELVAAITSAGITYADSVKGRFTISRDNAKNTVYLQMNSLKPEDTAVYYCASSIDCGKCLGRRYDYWGQGSQVTVSS | low polyreactivity
3 | QVQLVESGGGLVQAGGSLRLSCAASGLTFYNNAMGWYRQAPGKERELVARISSGGSTYYADSVKGRFTISRDNAKNTVYLQMNSLKPEDTADYYCAAGRGYWWWYGYDYWGQGTQVTVSS | low polyreactivity
4 | QVQLVESGGGLVQAGGSLRLSCAASGLTFYQNAMGWYRQAPGKERELVAAISSIGGTYYADSVKGRFTISRDNAKNTVYLQMNSLKPEDTAVYYCAKRSRYPYYPYGYWGQGTQVTVSS | high polyreactivity
5 | QVQLVESGGGLVQAGGSLRLSCAASGLTFYQYAMGWYRQAPGKERELVAGITSGGSTKYADSVKGRFTISRDNAKNTVYLQMNSLKPEDTAVYYCAARFYAFRKGYYYWGQGTQVTVSS | high polyreactivity
6 | QVQLVESGGGLVQAGGSLRLSCAASGLTFYQYAMGWYRQATGKETELVAAITSAGITYADSVKGRFTISRDNAKNTVYLQMNSLKPEDTAVYYCAKDDYFSYGYVEFDYWGQGTQVTVSS | low polyreactivity
7 | QVQLVESGGGLVQAGGSLRLSCAASGLTFYRNAMGWYTQAPGKERELVATISSSGGSTYYADSVKGRFTISRDNEKNTVYLQMNSLKPEDTAVYYCNARYYSYGPGKTVRYRTGYYGYWGQGTQVTVSS | high polyreactivity
8 | QVQLVESGGGLVQAGGSLRLSCAASGLTFYRYAMGWYRQARGKERELVAAISRRGGRTYSADSVKGRFTISRDNAKTTVYLQMNSLKPEDTAVYYCAAVTRDYRNDRRRQRYYYWGQGTQETVSS | high polyreactivity
9 | QVQLVESGGGLVQAGGSLRLSCAASGLTFYSYAMGWYRQAPGKERELVADISWSGGSTYYADSVKGRFTISRDNAKNTVYLQMNSLQPEDTAVYYCAAEVFPGYDYWGQGTQVTVSS | low polyreactivity
10 | QVQLVESGGGLVQAGGSLRLSCAASGLTFYTNAKGWYRQAPGKEREFVDAITSSGGRKYYADSVKGRFTISRDNAKNTVYLQMNSLKPEDTAVYYCAADARRPRIPEMYYWGQGTQVTVSS | high polyreactivity
11 | QVQLVESGGGLVQAGGSLRLSCAASGLTFYVYAMGWYRQAPGKEREFVAAISWSGTSTSYADSVKGRFTISRDNAKNTVYLQMNSLKPEDTAVYYCAADVHTPALYTYAAGDYWGQGTQVTVSS | low polyreactivity
12 | QVQLVESGGGLVQAGGSLRLSCAASGLTFYVYTMGWYSQAPGKEWELVAAISSGTTTHYADSVKGRFTISRDNAMNTVYLQMNSLKPEDTAVYYCGADLYHYSRDGYWGQGTQVTVSS | low polyreactivity
13 | QVQLVESGGGLVQAGGSLRLSCAASGLTFYYNAMGSYRQAPGKERELVAAISRSAGSTYYADSVKGRFTISRDNAKNTVYLQMHSLKPEDTAVYYCAVGYVYTRKGRVQPVKYDYWGQGTQVTVSS | high polyreactivity
14 | QVQLVESGGGLVQAGGSLRLSCAASGLTFYYNAMGWYRQAPGKERELVAAISRSGGSTYYADSVKGRFTISRDNAKNTVYLQMNSLKPEDTAVYYCAVGYVYTRKGRVQPVKYDYWGQGTQVTVSS | high polyreactivity
15 | QVQLVESGGGLVQAGGSLRLSCAASGLTFYYYAMGWYRPAPGKERELVARISSGTSTYYADSVKGRFTISRDNAKNTVYLQMNSLKPEDTAVYYCNARRKLGSTHGPWGGLEYWGQGTQVTVSS | low polyreactivity
16 | QVQLVESGGGLVQAGGSLRLSCAASGLTFYYYAMGWYRQAPGKEREIVAAISRSGGTTYYADSVKGRFTISRDTAKNTVYLQMNSLKPEDTAVYYCNAQWWRYWPSQVIFDYWGQGTQVTVSS | high polyreactivity
17 | QVQLVESGGGLVQAGGSLRLSCAASGLTFYYYAMGWYRQAPGKERELVAAISRSGGSTYYADSVKGRFTISRDNAKNTVYLQMNSLKPEDTAVYYCAADYFTLYPYRGYDYWGQGTQVTVSS | low polyreactivity
18 | QVQLVESGGGLVQAGGSLRLSCAASGLTFYYYAMGWYRQAPGKERELVAAMSIGGSTDYADSVKGRFTISRDNAKNTVYLQMNSLKPEDTAVYYCNVDDNSEYDYWGQGTQVTVSS | low polyreactivity
19 | QVQLVESGGGLVQAGGSLRLSCAASGLTFYYYAMGWYRQAPGKQRELVAAINSSGGITFYADSVKGRFTISRDNAKNTFYLQMNSLKPEDTAVYYCASGGRSNRYGYWGQGTQVTVSS | low polyreactivity
20 | QVQLVESGGGLVQAGGSLRLSCAASGLTFYYYVMGWYRQAPGKEREFVAAISRSGGSTYYADSVKGRFTISRDNAKNTVYLQMNSLKPEDTAVYYCASYTHDFGYKYWGQGTQVTVSS | high polyreactivity
21 | QVQLVESGGGLVQAGGSLRLSCAASGLTFYYYVMGWYRQAPGKERELVAAISSSGGNTYYADSVKGRFTISRDNAKNTVYLQMNSLKPEDTAVYYCAAGQKRTLDNYWGQGTQVTVSS | high polyreactivity

Row | Sequence | polyreactivity (PSR sort gate)
22 | QVQLVESGGGLVQAGGSLRLSCAASGLTINPNAMGWYRPAPGKERELVAAIDWSGGSTYCADSVKGRFTISRDNAKNTVYLQMNSLKPEDTAVYYSAADPPDRLFLYDYWGQGTQVTVSS | low polyreactivity
23 | QVQLVESGGGLVQAGGSLRLSCAASGLTIQNNAMGWYRQAPGKERDLVAVITRIGGSTYYADSVKGRFTISRDYEKNTVYLQMNSLKPEDTAVYYCAAGYRTRRRLHVYWGQGTQVTVSS | high polyreactivity
24 | QVQLVESGGGLVQAGGSLRLSCAASGLTITKNVMGWYRQAPGKERELVAVISRSGGSTYYADSVKGRFTISRDNAKNTVYLQMNSLKPEDTAVYYCNVKGPGPSRGNYWGQGTQVTVSS | low polyreactivity
25 | QVQLVESGGGLVQAGGSLRLSCAASGLTITQYVMGWYRQAPGKERDLDAAISWGGTSTYYADSVKGRFTISRDHAKNTVYLQMNSLKPEDTAVYYCNARSVYLSFWGFDYWGQGTQVTVSS | low polyreactivity
26 | QVQLVESGGGLVQAGGSLRLSCAASGLTIWRYAMGWYRQAPGKEREFVATISQNGGRTYYADSVKGRFTISRDNAKNTVYLQMNSLKPEDTAVYYCAADDWRWGYDYWGQGTQVTVSS | high polyreactivity
27 | QVQLVESGGGLVQAGGSLRLSCAASGLTIWYYAMGWSRQAPGKEREFVAAITSRGGDTYYADSVKGRFTISRDNAKNTVYLQMNSLKPEDTAVYYCAVRPRYYGTYRYYYWGQGTQVTVSS | high polyreactivity
28 | QVQLVESGGGLVQAGGSLRLSCAASGLTIYYYAMGWYRQAPGKERELVAAITWRGGSTYYADSVKGRFTISRDNAKNTVYLQMNSLKPEDTAVYYCAADPGPYGYYYWGQGTQVTVSS | low polyreactivity
29 | QVQLVESGGGLVQAGGSLRLSCAASGLTLAPNAMGWYRQAPGKERELVAAITRSGGDTYYADSVKGRFTISRDNAKNTVYLQMNSLKPEDTAVYYCAADYWFRYGTYEYWGQGTQVTVSS | high polyreactivity
30 | QVQLVESGGGLVQAGGSLRLSCAASGLTLDKYAMGWYRQAPGKERELVAGINSRGGSTYADSVKGRFTISRDNAKNTVYLQMNSMKPEDTAVYYCAADGKVQGGYYWGQGTQVTVSS | high polyreactivity
31 | QVQLVESGGGLVQAGGSLRLSCAASGLTLETIAMGGYRQAPGKERELVAGITYSGGTTYYADSVKGRFTISRDNAKNTVYLQMNSLKPEDTAVFYCAAHTRTSGHIYWGQGTQVTVSS | low polyreactivity
32 | QVQLVESGGGLVQAGGSLRLSCAASGLTLGDNPMGWYRQAPGKERELVAAITSGGVNTYYADSVKGRFTISRDNAKNTVYLQMNSLKPEDTAVYYCAVPNRVYSQQYKFSVRYYYWGQGTQVTVSS | low polyreactivity
33 | QVQLVESGGGLVQAGGSLRLSCAASGLTLYRYAMGWYRQAPGKERELVAGISWGGGSTYYADSVKGRFTISRDNAKNTVYLQMNSLKPEDTAVYYCAAGRLLYIPRYYYWGQGTQVTVSS | high polyreactivity
34 | QVQLVESGGGLVQAGGSLRLSCAASGLTLYRYTMGWYRQAPGKERELVAGISRGGSTYYADSVKGRFTISRDNAKNTVYLQMNSLKPEDTAVYYCAAYYGGHYYAYSYDYWGQGTQVTVSS | high polyreactivity
35 | QVQLVESGGGLVQAGGSLRLSCAASGLTLYYNAMGWYRQAPGKERELVAAISGSGGNTYYADSVKGRFTISRDNAKNTVYLQMNSLKPEDTAVYYCAKVVRVSHRYYYWGQGTQVTVSS | high polyreactivity
36 | QVQLVESGGGLVQAGGSLRLSCAASGLTSGYYAMGWYRQAPGKEREFVAAITWRSGSTYYADSVKGRFTISRDNAKNTVYLQMNSLKPEDTAVYYCAAVSVIYHGHNRSTYEYWGQGTQVTVSS | high polyreactivity
37 | QVQLVESGGGLVQAGGSLRLSCAASGLTSNGYTMGWYRQAPGKERELVAAITGRDGSTYADSVKGRFTISRDNAKNTVYLQMNSLKPEHTAVYYCAARLWRYRRYDYWGQGTQVTVSS | high polyreactivity
38 | QVQLVESGGGLVQAGGSLRLSCAASGNAMGWYRQAPGKERELVAAITRRVGSTYYADSVKGRFTISRDNAKNTVYLQMNSLKPEDTAVYYCAADNPSYNLWYGYWGQGTQVTVSS | low polyreactivity
39 | QVQLVESGGGLVQAGGSLRLSCAASGNIFAWYAMGGYRQAPGKERELVADISSRGGSTYYADSVKGRFTISRDNAKNTVYLQMNSLKPEDTAVYYCAAVWYWTQDYDYWGQGTQVTVSS | low polyreactivity
40 | QVQLVESGGGLVQAGGSLRLSCAASGNIFAYYAMGWYRQAPGKEREFVAAIRSSGVSTYYADSVKGRFTISRDNAKNTVYLQMNSLKPEDTAVYYCAADSITGGWLIVSPPFNYTYDYWGQGTQVTVSS | low polyreactivity
41 | QVQLVESGGGLVQAGGSLRLSCAASGNIFAYYAMGWYRQAPGKEREFVAAIRSSGVSTYYADSVKGRFTISRDNAKNTVYLQMNSLKPEDTAVYYCAADSITGGWLIVSPPYNYTYDYWGQGTQVTVSS | low polyreactivity
